± gives the half width of the 95% confidence interval.
What was measured:
[1] = folding stability dG unfold from trypsin proteolysis; higher = more stable
Procedure, shortened: (§1)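 Only designs with AlphaFold2 dimer inter-PAE above 15 were retained; each was a mini-protein under 80 residues with no cysteine, in a PA-tagged cDNA display construct. After digestion with trypsin and chymotrypsin and sequencing, K50 was inferred by Bayesian fitting of counts, and unfolding free energy was derived per protease or combined against a sequence-predicted unfolded-state K50 and a shared folded-state K50.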

[2] = folding stability dG unfold from chymotrypsin proteolysis; higher = more stable
Procedure, shortened: as §1

[3] = folding stability dG unfold (combined trypsin and chymotrypsin); higher = more stable
Procedure, shortened: as §1

Row | Sequence | folding stability dG unfold [1] | folding stability dG unfold [2] | folding stability dG unfold [3]
1 | SAGGSAGGSAGKLVVVRAIDPENPFVVATTSDNRTYVFDSLEELLEQVPEGVPVLFLPTVSAGGSAGGSAGG [r17_295_TrMRF] | 0.369 ± 0.028 kcal/mol | 1.22 ± 0.071 kcal/mol | 0.933 ± 0.081 kcal/mol
2 | SAGGSAGGSAGKMYKAKVKIGNKEYEAYIEENVPEDGTITVKFDDKTIEIKAENIEVYDESAGGSAGGSAGG [r11_247_TrMRF] | 0.905 ± 0.031 kcal/mol | 1.32 ± 0.11 kcal/mol | 1.15 ± 0.067 kcal/mol
3 | SAGGSAGGSAGKNMVEIEMMFVLPDGWFIKTSLRINPDKPGRIHEVEIEIRKIPPNDEQISAGGSAGGSAGG [r17_299_TrROS] | 3.51 ± 0.24 kcal/mol | 4.31 ± 0.17 kcal/mol | 4.06 ± 0.19 kcal/mol
4 | SAGGSAGGSAGKNPDGQPAPTIEIEPRTRELPDNGYKITIMRIRFPDSGVEFPMIMISPPSAGGSAGGSAGG [r17_31_TrROS] | 0.833 ± 0.072 kcal/mol | 1.51 ± 0.091 kcal/mol | 1.29 ± 0.1 kcal/mol
5 | SAGGSAGGSAGKPEVKVEAEVEPYPETDLVVVNVRVYVDGVPVEIPFVVPPSVAEAFLKASAGGSAGGSAGG [r11_700_TrMRF] | 1.08 ± 0.03 kcal/mol | 1.26 ± 0.024 kcal/mol | 1.16 ± 0.048 kcal/mol
6 | SAGGSAGGSAGKPIKLEEVLEKLNPEKIESVFVFPPIPYVVVLLKDSNGNKKIIVVKEDKSAGGSAGGSAGG [r17_374_TrMRF] | 0.695 ± 0.019 kcal/mol | 0.922 ± 0.21 kcal/mol | 0.837 ± 0.13 kcal/mol
7 | SAGGSAGGSAGKPIPYRITLETETTRAVFTIPADVPLEKVVEIAREIRELYPAPFSIEPSSAGGSAGGSAGG [r11_515_TrMRF] | 0.14 ± 0.21 kcal/mol | -0.00667 ± 0.43 kcal/mol | 0.197 ± 0.21 kcal/mol
8 | SAGGSAGGSAGKPKEIFVFDKEIDADEAVALLPDEVKEVVVFDIEEAREKGGILIKAVVDSAGGSAGGSAGG [r11_1002_TrMRF] | -1.18 ± 0.61 kcal/mol | 0.898 ± 0.1 kcal/mol | 0.54 ± 0.14 kcal/mol
9 | SAGGSAGGSAGKPKIKIEEIIEIEVITKKKIPETGKEKETPEKLYIIKVKVENIPPNLKVSAGGSAGGSAGG [r17_530_TrMRF] | 0.466 ± 0.11 kcal/mol | 2.11 ± 0.06 kcal/mol | 1.38 ± 0.25 kcal/mol
10 | SAGGSAGGSAGKPKVRLKLRLTVRVTTLNEDGSLEETEVELELEVELPEVRLPSLEELLKSAGGSAGGSAGG [r11_285_TrROS_Hall] | 3.22 ± 0.23 kcal/mol | 2.92 ± 0.24 kcal/mol | 3.07 ± 0.41 kcal/mol
11 | SAGGSAGGSAGKPKVYVKPIVKKGDYVLYLSYYPEEKKIELWVDKFGDKPKRFVKEYPLESAGGSAGGSAGG [r11_738_TrMRF] | 0.866 ± 0.043 kcal/mol | 1.25 ± 0.07 kcal/mol | 1.13 ± 0.068 kcal/mol
12 | SAGGSAGGSAGKPSVTILVLTDSPEDALALAKPLLEAGYEVKLELFRLPDDRYLALITVPSAGGSAGGSAGG [r11_677_TrMRF] | 2.13 ± 0.041 kcal/mol | 3.36 ± 0.039 kcal/mol | 2.92 ± 0.094 kcal/mol
13 | SAGGSAGGSAGKPVLTLTLRLEDGTLVRIEFDLETEELTVRVLDLETGEEKEFTFKLPAPSAGGSAGGSAGG [r11_931_TrROS_Hall] | 3.51 ± 0.22 kcal/mol | 4.07 ± 0.074 kcal/mol | 3.9 ± 0.14 kcal/mol
14 | SAGGSAGGSAGKRYTFFIPVPPDEMTPEDLVDWIEKIFPDFKGKEIKVEVMPDGYVRIKIEYSAGGSAGGSA [r18_65_TrROS] | 3.08 ± 0.069 kcal/mol | 3.89 ± 0.044 kcal/mol | 3.56 ± 0.097 kcal/mol
15 | SAGGSAGGSAGKTYEIVEYNPETKKFLIRFEDGSTKEVEVKPGDKIEVPPGAKVEIVPLDSAGGSAGGSAGG [r17_295_TrROS_Hall] | 1.94 ± 0.069 kcal/mol | 1.76 ± 0.1 kcal/mol | 1.88 ± 0.14 kcal/mol
16 | SAGGSAGGSAGKVEITVEKNPETGLYTVRIKTEDGKEIEITVPKNMTLEELKKLAEELLKSAGGSAGGSAGG [r17_161_TrROS_Hall] | 4.43 ± 0.22 kcal/mol | 4.42 ± 0.11 kcal/mol | 4.42 ± 0.1 kcal/mol
17 | SAGGSAGGSAGKVKLVEENGKLKLVVVDEKTKKVTVIEVPLENLDEILKLLPPGAKVYLLSAGGSAGGSAGG [r11_1006_TrROS_Hall] | 1.05 ± 0.053 kcal/mol | 2.52 ± 0.049 kcal/mol | 2.12 ± 0.17 kcal/mol
18 | SAGGSAGGSAGKYAIVEVNGKPVLVEFEPLPDDKVKVKIVFPDGSKVEIELKANEPIYVGSAGGSAGGSAGG [r11_525_TrMRF] | 1.75 ± 0.095 kcal/mol | 1.72 ± 0.076 kcal/mol | 1.83 ± 0.13 kcal/mol
19 | SAGGSAGGSAGLDPDDPNYKIIPMTMEIKVEEYRMDPDGKMERQEQEHPIPILIIVPPGDSAGGSAGGSAGG [r17_523_TrROS] | 0.933 ± 0.074 kcal/mol | -0.37 ± 0.28 kcal/mol | 0.365 ± 0.22 kcal/mol
20 | SAGGSAGGSAGLEVPEGYEVKILDVNPETLPNGERVVSMTVLIIDPDGNPRKVEFRFYAPSAGGSAGGSAGG [r11_570_TrMRF] | 2.47 ± 0.17 kcal/mol | 2.1 ± 0.063 kcal/mol | 2.27 ± 0.084 kcal/mol
21 | SAGGSAGGSAGLFPGPENIPKVSITPFEVENPLDDYTVTLYRVDFPDLGLSLPAALVSKRSAGGSAGGSAGG [r17_31_TrMRF] | 0.698 ± 0.15 kcal/mol | 1.6 ± 0.07 kcal/mol | 1.36 ± 0.16 kcal/mol

Source: the supplement of paper PMC12764529
